Among the data in publication PMC8315086 (2021) are IC50 values, retold here.

Test [1] concerns the target WT RBD-His (SARS-CoV-2, UniProt P0DTC2). Briefly: ELISA.
Test [2] concerns the target SARS-CoV-2 S1-His protein (SARS-CoV-2). Kind of test: ELISA.

B1: 2B11 monoclonal antibody (full-length human IgG1) (antibody, V domains shown)
VH: EVQLVESGGGLVQPGGSLRLSCAASEITVSSNYMNWVRQAPGKGLEWVSVIYSGGTTYYADSVKGRFTISRDNSENTLYLQMNSLRAEDTAVYYCARDLMEVGGMDVWGQGTTVTVSS
VL: LPVLTQPPSASGTPGQRVTISCSGSSSNVENDNVNWFQQQVPGSTPKLVIYNDRLRPSGVPDRFSGSKSGTSAYLAISGLQSEDEADYYCVAWDASLQSYVFGTGTKVTVL
Take B1: the IC50 worked out at 0.589 µg/mL in test [1] and 0.383 µg/mL in test [2].
